Experimental data: PMC2656773 (Neuron, 2009)

Target: the molecule itself
Experiment: non-reducing SDS-PAGE

B1: His-tagged Snapin wild-type (natural protein, UniProt Q9Z266 1-136, looked up)
chain: MAAAGSAAVSGAGTPVAGPTGRDLFAEGLLEFLRPAVQQLDSHVHAVRESQVELREQIDNLATELCRINEDQKVALDLDPYVKKLLNARRRVVLVNNILQNAQERLRRLNHSVAKETARRRAMLDSGVYPPGSPSK
  stoichiometry N: 2
